Consider three molecules from publication PMC7447783, “Cryo-EM structure of trimeric Mycobacterium smegmatis succinate dehydrogenase with a membrane-anchor SdhF” (Nature Communications, 2020).

By stoichiometry N is commonly meant the number of molecules, sites or subunits per partner or assembly.

Data set [1] deals with Mycobacterium smegmatis succinate dehydrogenase Sdh2 (trimer of SdhA-SdhB-SdhC-SdhD-SdhF protomers) (M. smegmatis) (UniProt A0QT09). Briefly: cryo-EM structure; digitonin-solubilised Sdh2 complex co-purified from M. smegmatis membranes, 5 mg/mL, 20 mM MOPS pH 7.4, 100 mM NaCl, 0.1% digitonin; 2.8 Å.
In data set [2] the target is T1, Sdh2 (trimeric diheme succinate:menaquinone oxidoreductase, complex II) (Mycolicibacterium smegmatis, UniProt A0QT08+A0QT09+A0QT10).
T1 construct: gene sdhA; SdhD with C-terminal 10xHis tag (pVV16) expressed in M. smegmatis; digitonin-solubilised, Ni-NTA and gel filtration; trimer of SdhABCDF; SdhF 3 kDa; with Succinate dehydrogenase iron-sulfur subunit; Succinate dehydrogenase membrane-anchor subunit SdhF
Put plainly: cryo-EM structure, […] Å. It counts as binding. Particulars: co-purified; SdhA subunit.

Data set [3] deals with the molecule itself. Put plainly: cryo-EM structure; digitonin-solubilised Sdh2 complex co-purified from M. smegmatis membranes, 5 mg/mL, 20 mM MOPS pH 7.4, 100 mM NaCl, 0.1% digitonin; 2.8 Å.

As to “Mycobacterium smegmatis succinate dehydrogenase Sdh2 (trimer of SdhA-SdhB-SdhC-SdhD-SdhF protomers) (from UniProt A0QT09 1-156) (complex)”, in data set [1], the stoichiometry N came out at 3.

`Cc1cc2nc3c(=O)[nH]c(=O)nc-3n(C[C@H](O)[C@H](O)[C@H](O)COP(=O)(O)OP(=O)(O)OC[C@H]3O[C@@H](n4cnc5c(N)ncnc54)[C@H](O)[C@@H]3O)c2cc1C` [FAD]: the “cryo-EM structure, 2.8 Å” value in data set [2] was “All the prosthetic groups (FAD, [2Fe-2S], [4Fe-4S], [3Fe-4S], and two b-type heme groups)”.

B1: SdhD subunit of M. smegmatis Sdh2 (membrane-anchored protein) with C-terminal 10x His tag (natural protein)
chain: MSAPGAGESRLGRPAPVMEREHDRPAALDHPRAPRKPRGIPYFEKYAWLFMRFSGIALVFLALGHLFIMLMWQDGVYRIDFNYVAERWASPFWQIWDMALLWLAMIHGANGMRTIIGDYARKNVTKFWLNSLLLLATGFTLVLGSYVLVTFDANIS
notes: SdhD (Sdh2D), membrane-anchor subunit of M. smegmatis Sdh2 with three transmembrane helices (IV-VI), gene MSMEG_1671; also called Sdh2D; subunit D; source: M. smegmatis mc2 51, expressed from pVV16; digitonin extract of membranes, purified with the complex (Ni-NTA, Superdex 200); not shown: His10, C-terminal, kept
On to B1, for which the binding result in data set [3] is given as “binds”.
